B1: ZNF232 (parent)
chain: HSGEKPFICKECGKAYGWCSELIR
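Also: lentivirally expressed fusions sorted by FACS into six bins by GFP to DsRed ratio, PSI derived from sequencing read proportions per bin multiplied by bin number.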

The data set covers variants of B1. The data set can be described thus: protein stability index of a GFP-peptide fusion (GPS, HEK-293T) (PSI 1-6); higher = more stable. As to conditions: c terminus: a fixed tail appended.
In the case of HSGEKPFICKECGKAYGWCSELVR [I23V], the protein stability index was determined as 1.97.

For the variant HSGEKPFICKECGKAYGWCSELHR [I23H], the protein stability index was found to be 2.71.

On to HSGEKPFICKECGKAYGWCSELPR [I23P], for which the protein stability index was determined as 2.28.

As for HSGEKPFICKECGKAYGWCSELGR [I23G], the protein stability index is 2.09.

For HSGEKPFICKECGKAYGWCSELQR [I23Q], the protein stability index is 2.58.

As to HSGEKPFICKECGKAYGWCSELSR [I23S], the protein stability index is 1.78.

Take HSGEKPFICKECGKAYGWCSELLR [I23L]: the protein stability index came to 2.31.

Turning to HSGEKPFICKECGKAYGWCSELKR [I23K], the protein stability index stood at 2.45.

On to HSGEKPFICKECGKAYGWCSELMR [I23M], for which the protein stability index was determined as 1.97.

Turning to HSGEKPFICKECGKAYGWCSELCR [I23C], the protein stability index came to 3.64.

HSGEKPFICKECGKAYGWCSELDR [I23D]: the protein stability index amounted to 2.5.

For the variant HSGEKPFICKECGKAYGWCSELRR [I23R], the protein stability index was 2.

On to HSGEKPFICKECGKAYGWCSELER [I23E], for which the protein stability index stood at 2.24.

Take HSGEKPFICKECGKAYGWCSELYR [I23Y]: the protein stability index came out at 1.82.

HSGEKPFICKECGKAYGWCSELAR [I23A]: the protein stability index amounted to 2.04.

HSGEKPFICKECGKAYGWCSELWR [I23W]: the protein stability index is 2.3.

In the case of HSGEKPFICKECGKAYGWCSELTR [I23T], the protein stability index worked out at 1.89.

Turning to HSGEKPFICKECGKAYGWCSELFR [I23F], the protein stability index amounted to 1.98.

HSGEKPFICKECGKAYGWCSELNR [I23N]: the protein stability index is 1.97.

In the case of HSGEKPFICKECGKAYGWCSELIA [R24A], the protein stability index was found to be 1.86.

Regarding HSGEKPFICKECGKAYGWCSELIC [R24C], the protein stability index is 4.05.

Regarding HSGEKPFICKECGKAYGWRSELIR [C19R], the protein stability index worked out at 1.73.

As for HSGEKPFICKECGKAYGWYSELIR [C19Y], the protein stability index is 1.54.

With HSGEKPFICKECGKAYGWISELIR [C19I], the protein stability index was found to be 1.89.

For HSGEKPFICKECGKAYGWQSELIR [C19Q], the protein stability index was found to be 2.39.

For HSGEKPFICKECGKAYGWNSELIR [C19N], the protein stability index was determined as 2.08.

Take HSGEKPFICKECGKAYGWTSELIR [C19T]: the protein stability index was 2.09.

For HSGEKPFICKECGKAYGWLSELIR [C19L], the protein stability index is 1.69.

Turning to HSGEKPFICKECGKAYGWGSELIR [C19G], the protein stability index amounted to 1.89.

As to HSGEKPFICKECGKAYGWVSELIR [C19V], the protein stability index worked out at 1.68.

HSGEKPFICKECGKAYGWKSELIR [C19K]: the protein stability index was found to be 2.08.

On to HSGEKPFICKECGKAYGWPSELIR [C19P], for which the protein stability index stood at 2.03.

As for HSGEKPFICKECGKAYGWFSELIR [C19F], the protein stability index was 1.69.

Regarding HSGEKPFICKECGKAYGWMSELIR [C19M], the protein stability index turned out to be 2.13.

As to HSGEKPFICKECGKAYGWSSELIR [C19S], the protein stability index was found to be 2.83.

For the variant HSGEKPFICKECGKAYGWHSELIR [C19H], the protein stability index is 1.82.

In the case of HSGEKPFICKECGKAYGWWSELIR [C19W], the protein stability index was found to be 1.37.

As to HSGEKPFICKECGKAYGWCVELIR [S20V], the protein stability index was 2.

With HSGEKPFICKECGKAYGWCLELIR [S20L], the protein stability index was 1.39.

Take HSGEKPFICKECGKAYGWCCELIR [S20C]: the protein stability index is 2.96.

For HSGEKPFICKECGKAYGWCPELIR [S20P], the protein stability index was determined as 1.87.

HSGEKPFICKECGKAYGWCWELIR [S20W]: the protein stability index was 1.77.

In the case of HSGEKPFICKECGKAYGWCAELIR [S20A], the protein stability index amounted to 2.34.

For HSGEKPFICKECGKAYGWCQELIR [S20Q], the protein stability index was determined as 1.98.

For the variant HSGEKPFICKECGKAYGWCGELIR [S20G], the protein stability index came out at 1.96.

Consider HSGEKPFICKECGKAYGWCDELIR [S20D], for which the protein stability index was determined as 1.72.

As for HSGEKPFICKECGKAYGWCMELIR [S20M], the protein stability index was determined as 1.75.

In the case of HSGEKPFICKECGKAYGWCYELIR [S20Y], the protein stability index amounted to 1.7.

In the case of HSGEKPFICKECGKAYGWCIELIR [S20I], the protein stability index stood at 2.17.

Turning to HSGEKPFICKECGKAYGWCFELIR [S20F], the protein stability index amounted to 2.11.

With HSGEKPFICKECGKAYGWCRELIR [S20R], the protein stability index was 3.24.

Take HSGEKPFICKECGKAYGWCEELIR [S20E]: the protein stability index stood at 2.07.

HSGEKPFICKECGKAYGWCTELIR [S20T]: the protein stability index is 2.11.

Consider HSGEKPFICKECGKAYGWCNELIR [S20N], for which the protein stability index came to 2.1.

With HSGEKPFICKECGKAYGWCHELIR [S20H], the protein stability index was 2.33.

Regarding HSGEKPFICKECGKAYGWCKELIR [S20K], the protein stability index was found to be 2.2.

For HSGEKPFICKECGKAYGWCSEPIR [L22P], the protein stability index was found to be 3.26.

Consider HSGEKPFICKECGKAYGWCSESIR [L22S], for which the protein stability index stood at 1.92.

As to HSGEKPFICKECGKAYGWCSETIR [L22T], the protein stability index came out at 1.72.

As to HSGEKPFICKECGKAYGWCSENIR [L22N], the protein stability index is 1.81.

Turning to HSGEKPFICKECGKAYGWCSEFIR [L22F], the protein stability index was found to be 1.94.

As for HSGEKPFICKECGKAYGWCSEVIR [L22V], the protein stability index was 2.09.

Turning to HSGEKPFICKECGKAYGWCSEGIR [L22G], the protein stability index was 2.

As to HSGEKPFICKECGKAYGWCSEMIR [L22M], the protein stability index came out at 2.08.

Consider HSGEKPFICKECGKAYGWCSEHIR [L22H], for which the protein stability index came to 3.29.

For HSGEKPFICKECGKAYGWCSEAIR [L22A], the protein stability index was 2.24.

For the variant HSGEKPFICKECGKAYGWCSEYIR [L22Y], the protein stability index turned out to be 2.18.

With HSGEKPFICKECGKAYGWCSEQIR [L22Q], the protein stability index was 1.65.

With HSGEKPFICKECGKAYGWCSEEIR [L22E], the protein stability index turned out to be 2.11.

As to HSGEKPFICKECGKAYGWCSERIR [L22R], the protein stability index was 2.08.

HSGEKPFICKECGKAYGWCSEKIR [L22K]: the protein stability index came out at 1.96.

Turning to HSGEKPFICKECGKAYGWCSEIIR [L22I], the protein stability index stood at 1.73.

On to HSGEKPFICKECGKAYGWCSEWIR [L22W], for which the protein stability index came out at 1.67.

For the variant HSGEKPFICKECGKAYGWCSEDIR [L22D], the protein stability index came out at 2.3.

On to HSGEKPFICKECGKAYGWCSECIR [L22C], for which the protein stability index is 4.76.

HSGEKPFICKECGKAYGWCSMLIR [E21M]: the protein stability index turned out to be 2.07.

Regarding HSGEKPFICKECGKAYGWCSGLIR [E21G], the protein stability index is 2.18.

Consider HSGEKPFICKECGKAYGWCSNLIR [E21N], for which the protein stability index is 1.38.

Regarding HSGEKPFICKECGKAYGWCSYLIR [E21Y], the protein stability index is 2.12.

Regarding HSGEKPFICKECGKAYGWCSKLIR [E21K], the protein stability index worked out at 2.26.

In the case of HSGEKPFICKECGKAYGWCSLLIR [E21L], the protein stability index amounted to 2.2.

For HSGEKPFICKECGKAYGWCSILIR [E21I], the protein stability index came out at 2.07.

On to HSGEKPFICKECGKAYGWCSQLIR [E21Q], for which the protein stability index worked out at 2.31.

As for HSGEKPFICKECGKAYGWCSHLIR [E21H], the protein stability index was found to be 3.87.

HSGEKPFICKECGKAYGWCSDLIR [E21D]: the protein stability index was determined as 1.86.

Turning to HSGEKPFICKECGKAYGWCSALIR [E21A], the protein stability index came to 2.27.

In the case of HSGEKPFICKECGKAYGWCSPLIR [E21P], the protein stability index amounted to 2.5.

Turning to HSGEKPFICKECGKAYGWCSVLIR [E21V], the protein stability index came out at 2.84.

With HSGEKPFICKECGKAYGWCSSLIR [E21S], the protein stability index was found to be 1.21.

Consider HSGEKPFICKECGKAYGWCSCLIR [E21C], for which the protein stability index is 2.8.

On to HSGEKPFICKECGKAYGWCSWLIR [E21W], for which the protein stability index came out at 2.11.

On to HSGEKPFICKECGKAYGWCSFLIR [E21F], for which the protein stability index is 1.92.

For the variant HSGEKPFICKECGKAYGWCSTLIR [E21T], the protein stability index worked out at 2.3.

Take HSGEKPFICKECGKAYGWCSRLIR [E21R]: the protein stability index was 1.99.

The record behind these values is the supplement of paper PMC10567573.
